Experimental data as given in paper PMC11193018 (The Journal of Biological Chemistry, 2024).
One block for each molecule: values may come before it.

Columns and labels:
[1] = biological target: Methanocaldococcus jannaschii GINS, wild type, non-His-tagged (Methanocaldococcus jannaschii); assay: SEC
[2] = biological target: MjGINS domain A (residues 21-115), as crystallized (Methanocaldococcus jannaschii); assay: crystal structure
[3] = biological target: MjGINS-M, dimeric mutant of MjGINS (K58A, K74A, K78A, I101A, I105A) (Methanocaldococcus jannaschii); assay: SEC
crystal structure = biological target: the molecule itself; assay: crystal structure
SEC = biological target: the molecule itself; assay: SEC

stoichiometry N [1]: 4
Molecule: Methanocaldococcus jannaschii GINS, wild type, non-His-tagged (natural protein)

stoichiometry N [2]: 4
Molecule: MjGINS domain A (residues 21-115), as crystallized (domain or fragment)

stoichiometry N [3]: 2
Molecule: MjGINS-M, dimeric mutant of MjGINS (K58A, K74A, K78A, I101A, I105A) (natural protein)

B1: Methanocaldococcus jannaschii RecJ2, tag-free, for crystallization (enzyme)
chain: MMEKLKEIEKVTKAIKEKILNHYGYIRVITHHDTDGLSSGGILAKMLMRTNKLFHLTVVEHLSKEVIEKLAKENEVNKPLFIFADMGSGQIEEIIKHNFNAIILDHHPPVIKDSFINENIIQLNPHIFGVDGSREITASGVCYLVAREFGYYDLSVLAIVGIIGDMQYNPLLGLNKFIVNEAREYRYVKIMNDIVYNIYDVEIYKAIAYCTKPYIPDLASEGKAFKFLKDIGIDPNKKQLDDTDKKKLLSAIIFKYPKIENLLIDRYLIEHKVRDAFLLSEMLNAVGRNGLFAVGIGICLEDDECIKIGNQILWEYKKNLINELKSVKLKKLNNIYYFEGKKGMIGIIASILVDDKPVIGYHIEGDIAKFSARGNRDLVNRGLNLSVAMAVAKEFGGNGGGHDVASGAVVSKDKVQEFLKRVDEIIGEQLRR
stoichiometry N (crystal structure): 2

B2: Methanocaldococcus jannaschii RecJ2, wild type, His-tagged (enzyme)
chain: MMEKLKEIEKVTKAIKEKILNHYGYIRVITHHDTDGLSSGGILAKMLMRTNKLFHLTVVEHLSKEVIEKLAKENEVNKPLFIFADMGSGQIEEIIKHNFNAIILDHHPPVIKDSFINENIIQLNPHIFGVDGSREITASGVCYLVAREFGYYDLSVLAIVGIIGDMQYNPLLGLNKFIVNEAREYRYVKIMNDIVYNIYDVEIYKAIAYCTKPYIPDLASEGKAFKFLKDIGIDPNKKQLDDTDKKKLLSAIIFKYPKIENLLIDRYLIEHKVRDAFLLSEMLNAVGRNGLFAVGIGICLEDDECIKIGNQILWEYKKNLINELKSVKLKKLNNIYYFEGKKGMIGIIASILVDDKPVIGYHIEGDIAKFSARGNRDLVNRGLNLSVAMAVAKEFGGNGGGHDVASGAVVSKDKVQEFLKRVDEIIGEQLRR
stoichiometry N (SEC): 2
